Assay: soluble fraction after stress (log2 fold change); higher = more stays soluble; pooled small domains, quantitative proteomics
Conditions: stress: 75 degC
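Further: 20 min heating vs room temperature control held 20 min.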

Row | Sequence | soluble fraction (log2)
1 | HMIIIMKMGADESQVQETIKRIKDLGFNTHLSKGENRTIIGVIGDVSSIDESDVERLRATPYIAEVVRVS | -0.455
2 | HMIIIPKKDYDVSQLDNLVSWLKDRGLEVHISRGENLTVIGLIGDTSKIDIDLIRSLDVVEEVKRIQ | -0.749
3 | HMIIVMASSKKEDVAHVVHKIEELGYKAHVIVGVERTVVAAVGDERGKERLISLEALPHVEKVFPILK | -2.16
4 | HMIKEVEYSQFLQMTDQGEVGKVEINEQENSILFTDKAEKNIYKTGMVEDAELSMRLYEAGIPFSGQI | 0.101
5 | HMIKEYEVLNYVTYEYDEIKKKLEEDFGIIVLMKEAYSDETPAGIIMDQDVEQGRIFKEGATNTITFTVS | -0.582
6 | HMIKLSEAEWKVMKLLWEESPKTMMQITNLLKETTGWTKHTVMTFLKRMEEKKAIHYEEGGRAKLYYP | -0.863
7 | HMIKVASVDGASDELAHEIREIMPLDFPVSYFDLDIKYLHKVLNDIPAVESAAIKVTVSGVLQIDISER | 0.569
8 | HMILALAISSEEDDARIYATYADRLREAYPASARVFEGMVDEEHEHRRRLIDLFQRRFGDTIPLVRREHV | -0.446
9 | HMILNPADEEKMNLINFELQQRGLEINDKEMQYIFTHHSRDLNSLLNLAEKLDEISHQEKKSISINLIKKI | -0.0616
10 | HMILNWSEYTRSEIIELARDLSPDKYMIIDDINTYSKMKLLPSQAFIAEMFGSLRQFQKEAWGRE | -1.62
11 | HMILPKFNQLLGQMGENIKLARKRRKLTAVQVSERAGIARSTLYLIEKGDASVSLGAYFNVLRVLG | -1.67
12 | HMIMEVDYGTFMKMTEENAIGRVQMDSTEIIFTDKENTQVYSTGIMYDPDLTQRLYDAGAVFA | -0.536
13 | HMIMGTIEKRGPFSFRIGVQVRLPDGSWEWIRDTIHVSPDLSARAARKQAEMALARLEADVYEGKRKPD | -2.18
14 | HMIMLDRILKIMDYNKFTPSEFADVLEIDRSRLSHILNGRNKPSLEIVMKILEKFPEISSDWLLFGSGNML | -2.73
15 | HMIMNEYEELRDRYLIGQIWKIGDLIEAKGIEGKIIQRGTNYVTFNDNNGKVHKAWLHEIKYEQ | -0.433
16 | HMIMNKEIPVVADEFVEKEFGTGAVKLTPAHDPNDYESGERHGLEVVEVFDETGKMNDLVPEYEG | 0.757
17 | HMIMTGSIQEKNGKYYTVLNIKDKNGKYKKKWQTTGLPVKGNKRKAEQILRRRIAEYEANQL | -0.861
18 | HMIMTHSALLEKDGFDIVKVHFERPNDDGFDFLDMTLPGEIVYKSFGFSEDEILKLKRYAKNNSSLIWDF | -2.5
19 | HMINEDMTQSDRMELWGRLIDVVEDWLAEKGITEEDIPNEEREGVEDAAIIFGDDYDYLADRFSEVIGISR | -1.2
20 | HMINFKVKNVQDVGSRLDKFLVTNIPEFSRSKIQKHIKNGKVMVNGLLKKTGYKLEINDEINILNN | -0.521
21 | HMINLDYILELIFEKNNKTKDKTALIEEIRGVIRASVGNRAKESLIVDFINDTDLDTITDKASIIESFFEY | -2.97
22 | HMINLTKVGNFISIIKLQQIWTIDELLKKVDINYDELLYLLTILSDIYSKNGEYFFDFDIDAENNKILFNN | 0.0266
23 | HMINVGYKFKQIRENAGLTLKQVSAMSGLSVSFISQIERGVVDPSWSSLKKISAALNIKLKDLF | -2.82

Row | Sequence | soluble fraction (log2)
24 | HMIPDLPAIGENLYRERKRQQLSMAELAAASGISKAMLSQIEADKVNPTIATLWKIAHALHVDLESLISGG | -0.965
25 | HMIPDPEKVMFDGGIRLLTQAGITEGKARSILGKWKRDHETERIIAALGAAQREGAIEPVSFIERVLRN | -0.24
26 | HMIPKIIDITDLNEEVREVIEEYMKRKRVEKYHIYQDSKGQIFIISGSAIIRYDSKLNNLYYL | -2.45
27 | HMIPLKTEAIPVSYGDGAAIIRSLAVAFPSRTFHWDAQTRRIIGQALDEEWQVIRSLVWQLDIP | -1.83
28 | HMIPLSDEETILLKLLEATETHLDALIRGSQLSAAKVSVVLMGMEMKRLVKRLPGQMYQRWD | -2.13
29 | HMIPRNLEDLVRENQIGLVILKIVEIIGEDNIRDLDPETIYFINRILNELNLKKIRNNILSEALPPR | -1.36
30 | HMIPSEQYNTALTEIGLSTRAHNSLRRAGIMTLGQLIEKTRDGLPPLPGFGDKSQVEVQDLLTGLGYPI | -0.187
31 | HMIPSGISEHPISKLPLSMSIIHRLELAGIKTIGDITGENFSRLQEIPRIGKVTAKRILEAIQSYSEQLP | -0.401
32 | HMIPYQDPLPKGAEESLLSKYPGFEITGVHFVNDTNFIGYKVRLERGEDREEISLDVNGKFL | -0.308
33 | HMIQADFIPQVEQRLADRGLSMSGDVMAAFLDRAGYGLRHVSNEIEKLSLYLGDRKKVTVEDVVQMVAPVR | -0.381
34 | HMIQAGDLVFIWNPKKGDNFLIKVTPGMSQGTHFGQIKHTELMEREYGEGIVTPKGEVYYLLRPTLAGYTR | -1.21
35 | HMIQIGEQIRYYRTKIGISQEALALMADINPAYIGQIERGIKSPTVNTIKKIANAMGINLHTLFT | -2.94
36 | HMIQKTHPALEIVKEYFSSQAASEFEAERFFNYYTSNGWLIGGKTKMKDWQAAARNWILNTAK | -0.999
37 | HMIQNEITLMLQVNGKLRGQIQVPSDASKEQIEQLAKDSEAAQKALAGASPKKIIVVPGRLVNIV | -0.792
38 | HMIQQFTYAFAKDKGVVVLPGRDVLTLGMRAGADPLVLLEARRALGSSFELEPLDRDTYERTLADVFTADA | -1.39
39 | HMIQRLNVNTEVLSTYIRNSNTPIEYLRQKLPNIDKFLKGELEPTFNQVYALSKLINIPTGLLLLKEPIS | -1.86
40 | HMIQSEQIPFSKFLKEVDSGRVVQVEIQGNNINGVLSDGSKFKTYSPNYPELVGKLSDKGVSIVASPV | 0.091
41 | HMIQTKNVTFTINEKTKIANIPLKSLKILSQEDNRITLSYEKNSLKIDEIISYFSDKNINILDITTD | -1.59
42 | HMIQYRKILELHFKDISQRTISTSVGSSRNTVSDVIKRSEQLGLERLTDNMNNRWLEEFLFPEKQ | -4.15
43 | HMIRALVPGQTLHGEIVGRNGGEVQVRLAEDMILNARVDQNIYLELGKDLTFEVKNNGATLTLSPL | -0.42
44 | HMIRDTTMYPVSVNGKKRYEWTVSKSISDDELKQQVLELEEIKKWIEGHEIKKLIFVPGRAINIV | -0.696
45 | HMIRDVDYNTFVSMVQEGKVGQVEIQEQNNRILFTDKDERTVYKTAMVPDSDLISRLLEAGVSTS | 0.359
46 | HMIRTGEVVTGKVINVKEDQIILNIGFKSDGIITRNEYTNDNSLDLRTVVHEGDEIEAKVLKVNDGEGQVV | 0.401

Row | Sequence | soluble fraction (log2)
47 | HMIRVGRPQYKRGEFVSFDFDNGRKKTEMYGRVDVIDSYGTFGQGREVSYDIRASDGILYKHIPESSVYGF | -1.17
48 | HMIRVVSIEDQPWFVAADVLKSLGMPTDKGVGKYLLALGSDERMLTTHGQIGGKGMAVTTIISESGLY | -0.67
49 | HMISDAEWKIMNVLWEEQPRTMMQITKELQEETGWTKHTVMTYLKRMESKKIIHYVEGEKAKLYYS | -0.133
50 | HMISDDLYQAVLDFTLTQDTISISRLQQNFNLGWPRARQLYDQLMQNGIIEPPDEANSAKGAVVIANKRG | 0.697
51 | HMISIKEAVFPFSRFPGVDTLLGPEMKSTGEVMGLADNFGHAYAKSQIASGSKLPESGTLFVSVKNSD | -0.467
52 | HMISKRFQIDEENAHKRIDIFLSHEFDSISRGIVQELIVKGEVLVNDKVTKRNYKLKTGDLVDITINL | -2.98
53 | HMITDQQKEQLSSLLKQAEAALAKAAANDQVLAAHKDEAVELLKSTSATSADAADLINELTELLKPYQ | 0.973
54 | HMITEDQVIARIGLLSPAEKSLLKDKLERFRRLTLSEQQHLREFHSALDNHDKRTDLLNVLRKYNDWVNQL | -1.99
55 | HMITEQEFQRVAAYVKNKAGINLNEKKVLVQGRLDSYMQRKGYSSYDEFMDRVERFPTGPEAEDLMNALTT | -0.0412
56 | HMITFRINQQSQVGLRLDKFIVQQMPDYSRTRIQSWIKTKNILVNGEGKKSGYALEFDDLVEVTIPE | -4.81
57 | HMITGREMDVLEALWSSEKPLVASDIPKMKPSLSISSVQLALRNLVKKKLVEVADIVYSGTVLSRSYRP | 0.0724
58 | HMITIDNYFNKEKELDFSSFPEALRKGHGFVSKATAHGSSWVSYHSSDAIKKTIDIYLSKLNEYLSNNAKA | -1.08
59 | HMITLYDLLGVSKTASSQEIKTAFKKKALQYHPDKNDGNPDKEEIFKRINMAYQVLGQPQSRANYDFSITP | -0.483
60 | HMITNMIIIMKPNASEEAIEKVKHLIESKGLQAHLSKGDEVTIVGVVGDKTRLHDSNIEISEGVDKIVNVT | 0.497
61 | HMITPAGVPPALLPVFDQFTLPDGTLRRGAVAAALRALYGPDAPQSGKRYQMEYDRVMAWHSQYFTSLH | -0.759
62 | HMITPKQTAETLGIATSTLRRWASEFEPFLSLRTGVKRTYTTDDITTLKRVKDLFAQGLKTEQVREAL | -0.287
63 | HMITPNQAAVTLKVSTSTLRRWSSDFEPFLSPRKGVKRLYTIEDIATLKRIQGLYKQGMNTAQVQA | -2.25
64 | HMITQQEFQQKLEALLSRAEAESFHIKKEEAESFFSGDELTGEQMKLVFDYLLSKKIIVEGYLK | -0.918
65 | HMITTEEVLNRIRKKVDHPATIRELQKALSIADDDRHRFRRRIRTLVASGALVRIRGNRYGLPSK | -0.213
66 | HMITTWAGKATTDVYGRVDANPKADAVLVIKTGWTVQVVGSKTAPDGGTWYKLIYNGKTMYANSKFIVK | -3.65
67 | HMITVEAPMPGKVLSVNVKAGDKVEAGDVLLILEAMKMQNEIMAPEDGTVSDVRVSAGDTVATGDVMVV | 0.0808
68 | HMIVIMAKESSPAELEGVKNRIESHPGLRPQVFDGVERIVVGVLGSIPPDLKDEIELLPGVIEVVPISK | -0.177
69 | HMIVVLKHGVTEQQMRNLIAWFKDQGVDVHVSRGIYQTVLGLVGDTSDIDVDLLRMLDIVDAVKRIT | -2.1

Source: the domain aggregation screens of Martell et al. (2025)
